How the values were obtained:
[1] = DHB dehydrogenase activity of cytosolic enzymes (DHB-dependent reduction of NAD+); format: biochemical
Experimental: Activity of the cytosolic DHB dehydrogenases (Ec-Mdh, Bs-Mdh, Ll-LdhA) was assayed by following the DHB-dependent reduction of NAD^+.
The reaction mixture contained 60 mM Hepes (pH 8), 50 mM potassium chloride, 5 mM MgCl2, 10 mM NAD, (optionally, 5 mM fructose-1,6-bisphosphate (F16bP)) (all products from Sigma), and appropriate amounts of purified enzyme or cell extract. Reactions were started by adding 50 mM (L)-2,4-dihydroxybutyrate (Rhodia).
All enzymatic assays were carried out at 37° C. in 96-well flat bottomed microtiter plates in a final volume of 250 μL. The reactions were followed by the characteristic absorption of NADH at 340 nm (εNADH=6.22 mM^−1 cm^−1) or the absorbtion of DCIP at 655 nm (εDCIP=5.9 mM^−1 cm^−1) in a microplate reader (BioRad 680XR).

[2] = Malate dehydrogenase activity (natural substrate); format: biochemical; settings: for Max. specific activity, malate: activity measured at 50 mM malate
[3] = activity measured at 50 mM DHB, Table 4

Row | Molecule | Max. specific activity, DHB [1, 3] | Max. specific activity, malate ([2]; Table 4) | also measured
1 | Ec-Mdh: (L)-malate dehydrogenase of Escherichia coli, wild-type, SEQ ID No. 124 (protein, listed as Escherichia coli) MKVAVLGAAGGIGQALALLLKTQLPSGSELSLYDIAPVTPGVAVDLSHIPTAVKIKGFSGEDATPALEGADVVLISAGVARKPGMDRSDLFNVNAGIVKNLVQQVAKTCPKACIGIITNPVNTTVAIAAEVLKKAGVYDKNKLFGVTTLDIIRSNTFVAELKGKQPGEVEVPVIGGHSGVTILPLLSQVPGVSFTEQEVADLTKRIQNAGTEVVEAKAGGGSATLSMGQAAARFGLSLVRALQGEQGVVECAYVEGDGQYARFFSQPLLLGKNGVEERKSIGTLSAFEQNALEGMLDTLKKDIALGEEFVNK |  |  | DHB dehydrogenase activity (in words) ([1]; cytosolic wild-type enzymes): no measurable DHB dehydrogenase activity; Max. specific activity, DHB ([1]; when not saturated, activity estimated at 50 mM substrate, Table 2): 0 µmol/mg/min; Max. specific activity, Natural substrate ([2]; natural substrate (L)-malate, Table 2): 52.5 µmol/mg/min
2 | Ec-MdhR81A G179D: E. coli malate dehydrogenase mutant R81A G179D, SEQ ID No. 168 (protein, listed as Escherichia coli) MKVAVLGAAGGIGQALALLLKTQLPSGSELSLYDIAPVTPGVAVDLSHIPTAVKIKGFSGEDATPALEGADVVLISAGVAAKPGMDRSDLFNVNAGIVKNLVQQVAKTCPKACIGIITNPVNTTVAIAAEVLKKAGVYDKNKLFGVTTLDIIRSNTFVAELKGKQPGEVEVPVIGGHSDVTILPLLSQVPGVSFTEQEVADLTKRIQNAGTEVVEAKAGGGSATLSMGQAAARFGLSLVRALQGEQGVVECAYVEGDGQYARFFSQPLLLGKNGVEERKSIGTLSAFEQNALEGMLDTLKKDIALGEEFVNK | 2.1 µmol/mg/min | 0.52 µmol/mg/min | 
3 | Ec-MdhR81A I12V: E. coli malate dehydrogenase mutant R81A I12V, SEQ ID No. 162 (protein, listed as Escherichia coli) MKVAVLGAAGGVGQALALLLKTQLPSGSELSLYDIAPVTPGVAVDLSHIPTAVKIKGFSGEDATPALEGADVVLISAGVAAKPGMDRSDLFNVNAGIVKNLVQQVAKTCPKACIGIITNPVNTTVAIAAEVLKKAGVYDKNKLFGVTTLDIIRSNTFVAELKGKQPGEVEVPVIGGHSGVTILPLLSQVPGVSFTEQEVADLTKRIQNAGTEVVEAKAGGGSATLSMGQAAARFGLSLVRALQGEQGVVECAYVEGDGQYARFFSQPLLLGKNGVEERKSIGTLSAFEQNALEGMLDTLKKDIALGEEFVNK | 2.5 µmol/mg/min | 0.66 µmol/mg/min | 
4 | Ec-MdhR81A M85Q I12V: E. coli malate dehydrogenase mutant R81A M85Q I12V, SEQ ID No. 164 (protein, listed as Escherichia coli) MKVAVLGAAGGVGQALALLLKTQLPSGSELSLYDIAPVTPGVAVDLSHIPTAVKIKGFSGEDATPALEGADVVLISAGVAAKPGQDRSDLFNVNAGIVKNLVQQVAKTCPKACIGIITNPVNTTVAIAAEVLKKAGVYDKNKLFGVTTLDIIRSNTFVAELKGKQPGEVEVPVIGGHSGVTILPLLSQVPGVSFTEQEVADLTKRIQNAGTEVVEAKAGGGSATLSMGQAAARFGLSLVRALQGEQGVVECAYVEGDGQYARFFSQPLLLGKNGVEERKSIGTLSAFEQNALEGMLDTLKKDIALGEEFVNK | 7.1 µmol/mg/min | 0.98 µmol/mg/min | 
5 | Ec-MdhR81A M85Q: E. coli malate dehydrogenase mutant R81A M85Q, SEQ ID No. 158 (protein, listed as Escherichia coli) MKVAVLGAAGGIGQALALLLKTQLPSGSELSLYDIAPVTPGVAVDLSHIPTAVKIKGFSGEDATPALEGADVVLISAGVAAKPGQDRSDLFNVNAGIVKNLVQQVAKTCPKACIGIITNPVNTTVAIAAEVLKKAGVYDKNKLFGVTTLDIIRSNTFVAELKGKQPGEVEVPVIGGHSGVTILPLLSQVPGVSFTEQEVADLTKRIQNAGTEVVEAKAGGGSATLSMGQAAARFGLSLVRALQGEQGVVECAYVEGDGQYARFFSQPLLLGKNGVEERKSIGTLSAFEQNALEGMLDTLKKDIALGEEFVNK | 2.98 µmol/mg/min | 0.57 µmol/mg/min | 
6 | Ec-MdhR81A D865 G179D: E. coli malate dehydrogenase mutant R81A D86S G179D (printed D865), SEQ ID No 172 (protein, listed as Escherichia coli) MKVAVLGAAGGIGQALALLLKTQLPSGSELSLYDIAPVTPGVAVDLSHIPTAVKIKGFSGEDATPALEGADVVLISAGVAAKPGMSRSDLFNVNAGIVKNLVQQVAKTCPKACIGIITNPVNTTVAIAAEVLKKAGVYDKNKLFGVTTLDIIRSNTFVAELKGKQPGEVEVPVIGGHSDVTILPLLSQVPGVSFTEQEVADLTKRIQNAGTEVVEAKAGGGSATLSMGQAAARFGLSLVRALQGEQGVVECAYVEGDGQYARFFSQPLLLGKNGVEERKSIGTLSAFEQNALEGMLDTLKKDIALGEEFVNK | 2.51 µmol/mg/min | 0.64 µmol/mg/min | Km ([1]; ns = not saturated at concentrations of up to 100 mM, Table 4): 25 mM; Km ([2]; read-out: Km, malate, Table 4): 4 mM
7 | Ec-MdhR81A: E. coli malate dehydrogenase mutant R81A, SEQ ID No. 156 (protein, listed as Escherichia coli) MKVAVLGAAGGIGQALALLLKTQLPSGSELSLYDIAPVTPGVAVDLSHIPTAVKIKGFSGEDATPALEGADVVLISAGVAAKPGMDRSDLFNVNAGIVKNLVQQVAKTCPKACIGIITNPVNTTVAIAAEVLKKAGVYDKNKLFGVTTLDIIRSNTFVAELKGKQPGEVEVPVIGGHSGVTILPLLSQVPGVSFTEQEVADLTKRIQNAGTEVVEAKAGGGSATLSMGQAAARFGLSLVRALQGEQGVVECAYVEGDGQYARFFSQPLLLGKNGVEERKSIGTLSAFEQNALEGMLDTLKKDIALGEEFVNK | 0.3 µmol/mg/min | 0.12 µmol/mg/min | 
8 | Ec-MdhR81A D86S: E. coli malate dehydrogenase mutant R81A D86S, SEQ ID No. 170 (protein, listed as Escherichia coli) MKVAVLGAAGGIGQALALLLKTQLPSGSELSLYDIAPVTPGVAVDLSHIPTAVKIKGFSGEDATPALEGADVVLISAGVAAKPGMSRSDLFNVNAGIVKNLVQQVAKTCPKACIGIITNPVNTTVAIAAEVLKKAGVYDKNKLFGVTTLDIIRSNTFVAELKGKQPGEVEVPVIGGHSGVTILPLLSQVPGVSFTEQEVADLTKRIQNAGTEVVEAKAGGGSATLSMGQAAARFGLSLVRALQGEQGVVECAYVEGDGQYARFFSQPLLLGKNGVEERKSIGTLSAFEQNALEGMLDTLKKDIALGEEFVNK | 0.79 µmol/mg/min | 0.42 µmol/mg/min | 
9 | Ec-MdhR81A M85E I12V: E. coli malate dehydrogenase mutant R81A M85E I12V, SEQ ID No. 166 (protein, listed as Escherichia coli) MKVAVLGAAGGVGQALALLLKTQLPSGSELSLYDIAPVTPGVAVDLSHIPTAVKIKGFSGEDATPALEGADVVLISAGVAAKPGEDRSDLFNVNAGIVKNLVQQVAKTCPKACIGIITNPVNTTVAIAAEVLKKAGVYDKNKLFGVTTLDIIRSNTFVAELKGKQPGEVEVPVIGGHSGVTILPLLSQVPGVSFTEQEVADLTKRIQNAGTEVVEAKAGGGSATLSMGQAAARFGLSLVRALQGEQGVVECAYVEGDGQYARFFSQPLLLGKNGVEERKSIGTLSAFEQNALEGMLDTLKKDIALGEEFVNK | 10.3 µmol/mg/min | 0.91 µmol/mg/min | 
10 | Ec-MdhR81A M85E: E. coli malate dehydrogenase mutant R81A M85E, SEQ ID No 160 (protein, listed as Escherichia coli) MKVAVLGAAGGIGQALALLLKTQLPSGSELSLYDIAPVTPGVAVDLSHIPTAVKIKGFSGEDATPALEGADVVLISAGVAAKPGEDRSDLFNVNAGIVKNLVQQVAKTCPKACIGIITNPVNTTVAIAAEVLKKAGVYDKNKLFGVTTLDIIRSNTFVAELKGKQPGEVEVPVIGGHSGVTILPLLSQVPGVSFTEQEVADLTKRIQNAGTEVVEAKAGGGSATLSMGQAAARFGLSLVRALQGEQGVVECAYVEGDGQYARFFSQPLLLGKNGVEERKSIGTLSAFEQNALEGMLDTLKKDIALGEEFVNK | 2.38 µmol/mg/min | 0.65 µmol/mg/min | 
11 | Bs-MdhR87C: B. subtilis malate dehydrogenase mutant R87C, SEQ ID No. 154 (protein, listed as Bacillus subtilis) MGNTRKKVSVIGAGFTGATTAFLIAQKELADVVLVDIPQLENPTKGKALDMLEASPVQGFDAKITGTSNYEDTAGSDIVVITAGIACKPGMSRDDLVSTNEKIMRSVTQEIVKYSPDSIIVVLTNPVDAMTYAVYKESGFPKERVIGQSGVLDTARFRTFVAEELNLSVKDVTGFVLGGHGDDMVPLVRYSYAGGIPLETLIPKERIDAIVERTRKGGGEIVNLLGNGSAYYAPAASLTEMVEAILKDQRRVLPTIAYLEGEYGYEGIYLGVPTIVGGNGLEQIIELELTDYERAQLNKSVESVKNVMKVLS | 0.06 µmol/mg/min | 0.13 µmol/mg/min | maximum activity on DHB ([1]; text of Example 2): 0.06 µmol/mg/min; activity on malate ([2]; text of Example 2): 0.13 µmol/mg/min
